These results are taken from US20220363740A1 (Sanofi, published 2022).

Read-outs that look alike come from different tables or passages of the source.

Assay [1] has as its target T1, Human TGFβ1 (human, UniProt P01137 279-390).
For assay [2], the target named is Human TGFβ1 (human) (UniProt P01137). The experiment in a line: SPR (Biacore), apparent KD, 24 RU TGFβ1 immobilized on the chip. In general terms: SPR reads the build-up and loss of mass on a sensor chip optically.
For assay [3] the target is unchanged. Description: SPR (Biacore), apparent KD, 105 RU TGFβ1 immobilized on the chip.
Assay [4] has the same target. Description: SPR (Biacore), apparent KD, 544 RU TGFβ1 immobilized on the chip.
In assay [5] the target is T1, Human TGFβ1. The experiment in a line: SPR.
The target of assay [6] is T1, Human TGFβ1. Description: cell-based or functional assay.
The target in assay [7] is T1, Human TGFβ1. The experiment in a line: SPR (Biacore), apparent KD, 24 RU TGFβ1 immobilized on the chip.
The target of assay [8] is T1, Human TGFβ1. Description: SPR (Biacore), apparent KD, 105 RU TGFβ1 immobilized on the chip.
Assay [9] has as its target T1, Human TGFβ1. Description: SPR (Biacore), apparent KD, 544 RU TGFβ1 immobilized on the chip.

T1 sequence (P01137 279-390 limits assumed): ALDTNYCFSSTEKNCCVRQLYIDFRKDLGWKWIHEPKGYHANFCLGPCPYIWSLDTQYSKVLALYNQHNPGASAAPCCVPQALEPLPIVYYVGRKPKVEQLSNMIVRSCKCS
Chain of Human TGFβ1 (human) (P01137 279-390 limits assumed): as above

For GC1008 (antibody), the IC50 (read off the curve), TGFβ1-stimulated IL-11 production (A549 bioassay) with Human TGFβ1 [1] worked out at 0.01 nM.
scFv CAT191 diabody (scFv diabody 5aa): the Kd with Human TGFβ1 (human) [2] was determined as 4.1 nM; with Human TGFβ1 (human) [3], 3.9 nM; with Human TGFβ1 (human) [4] it was 4.8 nM.

B1: Leucine zipper peptide-derived dimer (other)
scFv: EVQLVESGGGVVQPGRSLRLSCAASGFTFSSYGMHWVRQAPGKELEWVAVISYDGSIKYYADSVKGRFTISRDNSKNTLYLQMNSLRAEDTAVYYCARTGEYSGYDTDPQYSWGQGTTVTVSSSGGGSGGGGSGGGGSEIVLTQSPSSLSASVGDRVTITCRSSQGIGDDLGWYQQKPGKAPILLIYGTSTLQSGVPSRFSGSGSGTDFTLTINSLQPEDFATYYCLQDSNYPLTFGGGTRLEIKRAAAHHHHHHGAAEQKLISEEDLNGAAPKPSTPPGSSGELEELLKHLKELLKGPRKGELEELLKHLKELLKGGAPGGHHHHHH
notes: CAT191 scFv fused to tags and a leucine zipper peptide; Expressed in E. coli and only partially purified when tested
As for B1, the binding result with Human TGFβ1 [5] is listed as “binds”.

B2: CAT191(scFv) (scFv)
scFv: EVQLVESGGGVVQPGRSLRLSCAASGFTFSSYGMHWVRQAPGKELEWVAVISYDGSIKYYADSVKGRFTISRDNSKNTLYLQMNSLRAEDTAVYYCARTGEYSGYDTDPQYSWGQGTTVTVSSSGGGSGGGGSGGGGSEIVLTQSPSSLSASVGDRVTITCRSSQGIGDDLGWYQQKPGKAPILLIYGTSTLQSGVPSRFSGSGSGTDFTLTINSLQPEDFATYYCLQDSNYPLTFGGGTRLEIK
notes: Parental scFv; also called scFv(CAT191)
Take B2: the “IC50 (read off the curve), TGFβ1-stimulated IL-11 production (A549 bioassay)” value with Human TGFβ1 [6] was about 0.4 nM. Besides, the Kd with Human TGFβ1 [7] worked out at 1.7 nM; with Human TGFβ1 [8] it was 1.6 nM; with Human TGFβ1 [9] it was 1.3 nM.
